From US11311625B2, “Peptide-based multiple-drug delivery vehicle” (priority 2015, dated 2022)
Where two headings read alike, the source gives them in different places.

Columns and labels:
[1] = Chemo-stability and drug release of 9a and CLB in buffers at pH 2, 5 and 7.4 (LC-MS); assay type: physicochemical; conditions: for half-life at 0.04 mg/mL: buffer, read-out: degradation t1/2 (converted)
Description: Stock solutions chemo-stability studies were prepared by dissolving 5 mg of the tested compound in 5000 μl of DMSO.
Incubation procedure: Aqueous stability was determined at pH 2, 5 and 7.4. Aliquots (100 μl) of stock solution were diluted to a total of 2.5 mL with the desired buffer and then incubated at 37° C. During the incubation period (up to 160 h) 250 μL portions were drawn at different time intervals, filtered and analyzed by LC-MS.
Peptidyl delivery systems loaded with anticancer drugs are expected to reach their site of action with minimal degradation. The PDS should be stable enough to be absorbed by cancer cells and only then deliver its toxic cargo. Chemo-stability and bio-stability studies may give us a background check for the endurance of our compact peptidyl DDS under the different conditions it is expected to encounter in a potential animal test. To that end, samples of 9a were incubated at pH 2, mimicking stomach conditions, at pH 5 mimicking the microenvironment in tumors, and at physiological pH 7.4, all at 37° C. Aliquots from the stock solutions were extracted at different time intervals and analyzed by LC-MS following the decrease in concentration of 9a (i.e., chemical degradation) and the formation of the dihydroxy derivative 11. In addition, the direct release of the different drugs was also followed based on the increase in the concentration of CLB, AZA and CAMP over time. In this analysis samples of 9a, 11, CLB, AZA and CAMP were used as references. Overall, the HPLC trace presents a very complex mixture of metabolites which could not be exhaustively characterized. Scheme 9 below presented the molecular structure 11.

[2] = Bio-stability of 9a in murine liver homogenate (LH); assay type: in vitro ADME, mouse
Description: Preparation of the LH and assay: Mice were sacrificed by CO2 inhalation euthanasia. The livers were removed, minced, washed three times in cold PBS buffer and homogenized in Tris-HCl, pH 7.4 buffer (wt/3 vol.) by dozen strokes in a Potter-Elvehjem glass tissue grinder. The tissue homogenate was centrifuged at 4° C., 14000 rpm, 20 min. The supernatant was carefully collected (LH) and used immediately or else stored in liquid nitrogen. The concentration of protein was measured using the BCA protein assay with bovine serum albumin as a standard.
Assay incubation procedure: Incubations were conducted in an incubator oven set at 37° C. Each incubation tube contained 2 mL homogenate samples (equivalent to 6 mg total protein of mouse LH). The samples were prepared by adding 50 μL of stock solution to the LH at the beginning of the incubation period. Aliquots (100 μL) of the LH mixture were removed after 10, 30, 60, 90, 120, and 180 min. immediately quenched with 2.5 volumes of ethanol, and centrifuged at 14000 rpm for 15 min. The supernatants were collected, filtered and analyzed by LC-MS.
In order to get a biologically relevant picture of the release sequence of the different drugs, the bio-stability of 9a in murine liver homogenate (LH) was studied. Examination of the degradation rate of 9a, accompanied by cleavage of free drugs, was carried out following the LC-MS trace at different time intervals using premade authentic samples as reference signals.

[3] = system: HEK293 and TRAMP C2 cell lines; assay type: cell-based, human; conditions: 0.1-10 μM, both cell lines
Description: The cytotoxicity of the conjugates was determined by measuring the mitochondrial enzyme activity, using a commercial XTT assay kit. All samples contained DMSO at a final concentration <0.05%. Cells were cultured in micro wells at 2-4×10^4 cells/mL and incubated for 24 h or 72 h at 37° C. After the first incubation period of 24 h the cultures were washed and then given a fresh medium containing different concentrations of the tested substances. At the end of the second incubation, XTT reagent was added and the cells were re-incubated for additional 2-4 h. During that time the absorbencies in the wells were measured with a TECAN Infinite M200 ELISA reader at both 480 and 680 nm. […]
The in vitro activity of 9a was determined on human embryonic kidney 293 (HEK293) cells and human prostate cancer TRAMP C2 cell lines in order to compare the cytotoxicity of 9a relative to the three selected free drugs. […] The cytotoxicity of 9a was determined by measuring the mitochondrial enzyme activity of the different cell lines after incubation with the different substances for 24 h and 72 h. The viability factor (% of surviving cells) of the cell cultures was calculated relative to a control sample incubated with the vehicle only, considered as 100% viability. […]
FIGS. 19A-19D present the results of the viability assay (% surviving cells) of the cell cultures calculated relative to the control, 100% viability. […]

[4] = system: HEK-293 (Human Embryonic Kidney 293) cell line; assay: XTT growth inhibition assay, HEK-293 negative control; assay type: cell-based
Description: (§1) The cytotoxicity of the peptide-drug conjugates was determined by measuring the mitochondrial enzyme activity, using a commercial XTT assay kit. All samples contained DMSO at final concentration <0.05%. Cells were cultured in micro wells at 2-4×10^4 cells/ml and incubated for 24 h or 72 h. After the first incubation period the cultures were washed and then given fresh medium containing different concentrations of the tested substances. At the end of the second incubation, XTT reagent was added and the cells were re-incubated for additional 2-4 h. During that time the absorbencies in the wells were measured with a TECAN Infinite M200 plate reader at both 480 and 680 nm. […]
(§2) In order to compare the cytotoxic effects of the conjugates relative to the free drugs, the in vitro cytotoxic effect of the drug bioconjugates 1a-e was determined on SSTR2 overexpressed HCT 116 human colorectal carcinoma, H1299 human non-small cell lung carcinoma and TRAMP C2 human prostate cancer cell lines. […]
(§3) FIGS. 13A-13D present the results of the XTT growth inhibition assay conducted for conjugates 1a-e. […] After the treatment, growth inhibition was measured using the XTT assay: The culture medium was replaced by a new one, and then the XTT reagent was added. The wells were incubated for 2-4 hrs. after which the optical density (OD) was measured at 480 and 680 nm. […]

[5] = system: HCT 116, H1299, TRAMP C2 and HEK cell lines; assay: XTT growth inhibition assay, statements over all tested cell lines; assay type: cell-based, human
Description: (§4) The cytotoxicity of the peptide-drug conjugates was determined by measuring the mitochondrial enzyme activity, using a commercial XTT assay kit. All samples contained DMSO at final concentration <0.05%. Cells were cultured in micro wells at 2-4×10^4 cells/ml and incubated for 24 h or 72 h. After the first incubation period the cultures were washed and then given fresh medium containing different concentrations of the tested substances. At the end of the second incubation, XTT reagent was added and the cells were re-incubated for additional 2-4 h. During that time the absorbencies in the wells were measured with a TECAN Infinite M200 plate reader at both 480 and 680 nm. The difference between these measurements was used for calculating the % Growth Inhibition (GI) in test wells compared to two controls: cells that were exposed to the medium and solvent, and those that were exposed to a solvent-free medium. All the tests were done in quadruplicates. Each experiment was conducted twice.
(§5) In order to compare the cytotoxic effects of the conjugates relative to the free drugs, the in vitro cytotoxic effect of the drug bioconjugates 1a-e was determined on SSTR2 overexpressed HCT 116 human colorectal carcinoma, H1299 human non-small cell lung carcinoma and TRAMP C2 human prostate cancer cell lines. The SSTR2 low-expressed HEK-293 (Human Embryonic Kidney 293) cell line was used as a negative control. The study was elaborated over a concentration range of 1-10 μM.
FIGS. 13A-13D present the results of the XTT growth inhibition assay conducted for conjugates 1a-e. Growth inhibition effect of drug-conjugates versus free drugs was studied on three cell lines with an over-expression of SSTR2 (FIG. 13A. HCT 116; FIG. 13B. H1299; FIG. 13C. TRAMP C2) against the SSTR2 low expression cell line (FIG. 13D) HEK as negative control. All the cell lines were seeded and allowed to adhere in the wells, after which they were treated with the different compounds in increasing concentrations for 24 and 72 hr. After the treatment, growth inhibition was measured using the XTT assay: The culture medium was replaced by a new one, and then the XTT reagent was added. The wells were incubated for 2-4 hrs. after which the optical density (OD) was measured at 480 and 680 nm. Percentage of growth inhibition for each compound was calculated by comparison of the treated culture versus a control culture (free of any compound). The result shown for each concentration point represents the mean±standard error calculated from two different experiments. In each experiment the compounds were tested in quadruplicates.

[6] = Chemo-stability and drug release of conjugates 1a-e in buffers at pH 2, 5 and 7.4 (LC-MS); assay type: physicochemical; conditions: 37° C.
Description: Incubation procedure: Aqueous stability was determined at pH 2.0 (phosphate buffer), 5.0 (citrate buffer) and 7.4 (PBS buffer). 100 μl of the stock solutions were diluted to 2.5 ml with the desired buffer and then incubated at 37° C. During the incubation period (up to 200 hrs.), aliquots were removed at different time intervals, filtered and analyzed by LC-MS.
Chemo-stability. The chemo-stability tests of the conjugates were performed at three different pH values; a physiological pH of 7.4, the slightly acidic pH 5, mimicking the microenvironment in tumors, and the more acidic pH 2.
FIGS. 11A-11J present the results of the chemo-stability and drug release profiles assays, conducted for conjugates 1a-e at pH 2, 5 and 7.4. Degradation of 1a (FIG. 11A), 1b (FIG. 11C), 1c (FIG. 11E), 1d (FIG. 11G), 1e FIG. 11 (FIG. 11I), and the release of the corresponding drugs: CLB (FIG. 11B), CPT (FIG. 11D), AM (FIG. 11F), ABT-751 (FIG. 11H), and COMB (FIG. 11J). Stock solutions were prepared by dissolving 5 mg of the measured conjugate in 0.5 ml DMSO. 100 μl of the stock solution were diluted to 2.5 ml with the relevant buffer and then incubated at 37° C. Along the incubation period, aliquots were taken at the desired time points and analyzed by LC-MS.

[7] = Bio-stability and drug release of conjugates 1a-e in murine liver homogenate (LH); assay type: in vitro ADME, mouse; conditions: 37° C.
Description: Preparation of liver homogenate: Mice were sacrificed by CO2 inhalation euthanasia. The livers were removed, minced, washed three times in cold PBS buffer and homogenized in Tris-HCl buffer, pH 7.4 (wt/3 vol.) by dozen strokes in a Potter-Elvehjem glass tissue grinder. The tissue homogenate was centrifuged at 4° C., 14000 rpm, 20 min. The supernatant was carefully collected (liver homogenate) and used immediately or else stored in liquid nitrogen.
Incubation procedure: Incubations were conducted in a 37° C. incubator with 2 ml homogenate (equivalent to 6 mg total protein of mouse liver homogenate) per incubation tube. The samples were prepared by adding 50 μl of stock solution to the homogenate (homogenate mixture) at the beginning of the incubation period. Aliquots of the homogenate mixture were removed after 10, 30, 60, 90, 120 and 180 min and then immediately quenched with 2.5 volumes of ethanol. The samples were centrifuged at 14000 rpm for 15 min. Supernatants were collected, filtered and analyzed by LC-MS.
FIGS. 12A-12E present the results of the bio-stability and drug release profiles assays conducted for conjugates 1a-e in LH. […] Stock solutions were prepared by dissolving 5 mg of the measured conjugate in 0.5 ml DMSO. 50 μl of the stock solution were diluted with 2 ml of fresh mouse liver homogenate and then the mixture was incubated at 37° C. Aliquots were collected at 10, 30, 60, 90 and 120 min, mixed with 2.5 volumes of ethanol and centrifuged (14,000 rpm, 15 min). The supernatants were collected, filtered and analyzed by LC-MS

[8] = system: H1299 human non-small cell lung carcinoma cells; assay: XTT growth inhibition assay, H1299; assay type: cell-based; conditions: 10 μM, incubation of 72 h
Description: as §4, §5
as §3, with “nm. Percentage of growth inhibition for each compound was calculated by comparison of the treated culture versus a control culture (free of any compound). The result shown for each concentration point represents the mean±standard error calculated from two different experiments.” for “nm.”

[9] = system: TRAMP C2 prostate cancer cell lines; assay: XTT growth inhibition assay, TRAMP C2; assay type: cell-based, human; conditions: compared with corresponding free drugs
Description: as §1, §2, §3

SMILES: CC[C@@]1(OC(=O)NCCCC[C@H](NC(=O)CCCc2ccc(N(CCCl)CCCl)cc2)C(=O)NCCCC[C@H](NC(=O)Oc2c(OC)cc([C@@H]3c4[nH]c5ccccc5c4C[C@H]4COC(=O)N43)cc2OC)C(=O)O)C(=O)OCc2c1cc1n(c2=O)Cc2cc3ccccc3nc2-1 [9a, Lys(AZA)-Lys(CBL)(CAMP)]
- half-life at 0.04 mg/mL ([1]; pH 2, 37° C.): 2 h
- half-life at 0.04 mg/mL ([1]; pH 5, 37° C.): 1.5 h
- release of the three drugs ([1]; pH 2): none of the three drugs appeared to be released intact or at all
- appearance of free AZA ([1]; pH 5): not detected
- maximum concentration of released CAMP ([1]; pH 5): 34 nM
- period in which released CAMP decays completely ([1]; pH 5): ≤ 80 h
- time at which CLB could be first detected ([1]; pH 5): 38 h
- time to maximum concentration of released CAMP ([1]; pH 5): 21 h
- concentration of released CLB ([1]; pH 5, after 100 h): ≤ 44 nM
- free CLB ([1]; pH 7.4): not detected
- maximum concentration plateau of released AZA ([1]; pH 7.4): 12 nM
- time at which AZA concentration starts to rise above base-line ([1]; pH 7.4): 20 h
- time at which CAMP could be detected ([1]; pH 7.4): 75 h
- time to maximum concentration of released CAMP ([1]; pH 7.4): 100 h
- time to maximum concentration plateau of released AZA ([1]; pH 7.4): 40 h
- presence of free AZA [2]: could not be detected
- time to concentration plateau of released CAMP [2]: 30 min
- time to steady state plateau of released CLB [2]: 80 min
- drug release in LH ([2]; 37° C.): quick release of CLB and CAMP
- cytotoxic effect / relative cytotoxic activity [3]: comparable level to the tested free drugs

SMILES: CC[C@@]1(O)C(=O)OCc2c1cc1n(c2=O)Cc2cc3ccccc3nc2-1 [CPT, Camptothecin]
- cytotoxic effect [4]: toxic
- IC50 values ([5]; tested cell lines including HEK): low μM range

SMILES: COc1ccc(S(=O)(=O)Nc2cccnc2Nc2ccc(OC(=O)NCCCC(=O)N[C@H](Cc3ccccc3)C(=O)N[C@H]3CSSCCN(CC(N)=O)C(=O)[C@H](Cc4ccccc4)NC(=O)[C@H]([C@@H](C)O)NC(=O)[C@H](CCCCN)NC(=O)[C@@H](Cc4c[nH]c5ccccc45)NC(=O)[C@H](Cc4c[nH]c5ccccc45)NC(=O)[C@H](Cc4ccccc4)NC3=O)cc2)cc1 [conjugate 1d]
- degradation of conjugate ([6]; all tested pH values (pH 2, 5, 7.4)): rapid degradation
- half-life at 0.4 mg/ml ([6]; buffer, all tested pH values, read-out: average degradation t1/2 (converted)): 8 h
- release of free drug in liver homogenate [7]: could hardly be detected
- cytotoxic effect on H1299 [8]: most active
- cytotoxic effect on TRAMP C2 [9]: most potent targeted therapeutic effect
- cytotoxicity throughout the study ([5]; 1-10 μM, 24 and 72 h): targeted but cell selective cytotoxicity
